{"source": "patent US20230174616A1", "about": "(UNIVERSITY OF SOUTHERN CALIFORNIA, published 2023)", "note": "*1 amine or outer side, *2 acyl side, *3 side chain or, on linkers, in order; H or OH if unused. Where no end group is shown, it is not given here. [ ]: non-standard residue; d: D form. Met(35S) = [35S]-methionine label, C[35S]CC[C@H](N[*:1])C(=O)[*:2]; 35S = [35S]-methionine radiolabel; Pra = C#CC[C@H](N)C(=O)O", "data": [{"biological_target": "mPD-L1 (extracellular domain of mouse PD-L1, A18 to H239, expressed in E. coli, biotinylated) (mouse, biotin on the epsilon-amino group of the Avi tag lysine)", "sequence (chain, as listed by the source limits assumed)": "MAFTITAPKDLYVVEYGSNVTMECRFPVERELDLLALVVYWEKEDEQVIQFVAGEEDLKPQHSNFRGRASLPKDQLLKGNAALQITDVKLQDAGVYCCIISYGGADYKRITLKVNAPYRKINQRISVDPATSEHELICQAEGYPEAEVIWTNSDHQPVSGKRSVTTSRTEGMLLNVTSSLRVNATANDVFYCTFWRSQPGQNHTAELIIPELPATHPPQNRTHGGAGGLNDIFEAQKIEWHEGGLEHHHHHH", "assay": "radioactive pull-down of [35S]-labeled SPAM on immobilized target, normalized to hPD-L1", "values": [{"binder": "M(35S)PIFLDHILNKFWILHYAGSGSSGHHHHHHSS (Translated in reticulocyte lysate; also called [35S]-SPAM; radiolabeled SPAM peptide)", "note": "[[35S]-labeled SPAM peptide (in vitro translated)]", "binding result": "no binding"}]}, {"biological_target": "T1, biotinylated hPD-L1 (extracellular domain of human PD-L1, Ala18 to Thr239, expressed in E. coli, … (human, biotin on the epsilon-amino group of the Avi tag lysine (BirA)))", "T1 construct": "also called recombinant hPD-L1; non-glycosylated hPD-L1", "assay": "radioactive pull-down of [35S]-labeled variant on immobilized hPD-L1, normalized to SPAM", "experimental": "(§1) The conservation level for each doped residue in the X₁₇ library was obtained from next-generation sequencing data. […] FIG. 3 discloses SEQ ID NO: 180. […] Each measurement was carried out in triplicate and error bars show the standard deviation of the mean. (Students t-test; p value <0.05 (*), <0.01 (**), <0.005 (***)<0.001 (****))\n[³⁵S]-labeled peptides were translated as described above by including 2 μCi labeled methionine (Perkin Elmer) per 10 pmol of template in the translation reaction. Each peptide was tested with a […] (for X₉-library derived peptides) (SEQ ID NO: 11) or a […] (for X17-library derived peptides) (SEQ ID NO: 12) C-terminal sequence. […] The supernatant was removed and was counted. The beads were subsequently washed three times with 1 mL of blocking buffer and the washes were also counted. Finally, the beads were resuspended in 1 mL of blocking buffer and were counted separately. The ratio of the counts remaining on the beads to the total counts added to the binding reaction (the sum of the counts for supernatant, washes, and beads) was calculated to determine the percent bound.", "values": [{"binder": "[Met(35S)]PIFLDHILNKFWILHYGGSGSSGHHHHHHSS", "note": "[SPAM A18 variant (glycine substituted for alanine at position 18)]", "binding result": "no binding"}]}, {"biological_target": "T1, biotinylated hPD-L1 (extracellular …)", "assay": "radioactive pull-down of [35S]-labeled alanine variant on immobilized hPD-L1, normalized to SPAM", "experimental": "as §1\n[³⁵S]-labeled peptides were translated as described above by including 2 μCi labeled methionine (Perkin Elmer) per 10 pmol of template in the translation reaction. Each peptide was tested with a […] (for X₉-library derived peptides) (SEQ ID NO: 11) or a […] (for X17-library derived peptides) (SEQ ID NO: 12) C-terminal sequence. Binding assays using [35S]-labeled peptide-RNA fusions were similarly performed on hPD-L1 immobilized beads using 75 pmol hPD-L1 immobilized on streptavidin or neutravidin agarose beads (Thermo Fisher scientific) in blocking buffer (20 mM HEPES-KOH pH 7.5, 150 mM NaCl, 0.2% (v/v) Tween-20, 1 mg/mL BSA, 50 μg/mL tRNA and 0.02 mM biotin) at 4° C. for 1 h. The supernatant was removed and was counted.", "values": [{"binder": "[Met(35S)]PIFLDHILNKFWALHYAGSGSSGHHHHHHSS (in vitro translated alanine-scan variant)", "note": "[SPAM I14A variant]", "binding result": "no binding"}, {"binder": "M(35S)PIFLDHALNKFWILHYAGSGSSGHHHHHHSS (in vitro translated alanine-scan variant)", "note": "[SPAM I8A variant]", "binding result": "binds"}, {"binder": "[Met(35S)]PIFLAHILNKFWILHYAGSGSSGHHHHHHSS (in vitro translated alanine-scan variant)", "note": "[SPAM D6A variant]", "binding result": "no binding"}, {"binder": "[Met(35S)]PIALDHILNKFWILHYAGSGSSGHHHHHHSS (in vitro translated alanine-scan variant)", "note": "[SPAM F4A variant]", "binding result": "binds"}, {"binder": "M(35S)PIFLDHILAKFWILHYAGSGSSGHHHHHHSS (in vitro translated alanine-scan variant)", "note": "[SPAM N10A variant]", "binding result": "no binding"}, {"binder": "M(35S)PIFLDHILNKFWIAHYAGSGSSGHHHHHHSS (in vitro translated alanine-scan variant)", "note": "[SPAM L15A variant]", "binding result": "no binding"}, {"binder": "M(35S)PIFLDHIANKFWILHYAGSGSSGHHHHHHSS (in vitro translated alanine-scan variant)", "note": "[SPAM L9A variant]", "binding result": "binds"}, {"binder": "[Met(35S)]PIFLDHILNKFWILAYAGSGSSGHHHHHHSS (in vitro translated alanine-scan variant)", "note": "[SPAM H16A variant]", "binding result": "no binding"}, {"binder": "M(35S)PIFADHILNKFWILHYAGSGSSGHHHHHHSS (in vitro translated alanine-scan variant)", "note": "[SPAM L5A variant]", "binding result": "binds"}, {"binder": "[Met(35S)]PIFLDHILNKAWILHYAGSGSSGHHHHHHSS (in vitro translated alanine-scan variant)", "note": "[SPAM F12A variant]", "binding result": "no binding"}, {"binder": "M(35S)PAFLDHILNKFWILHYAGSGSSGHHHHHHSS (in vitro translated alanine-scan variant)", "note": "[SPAM I3A variant]", "binding result": "binds"}, {"binder": "M(35S)PIFLDHILNKFAILHYAGSGSSGHHHHHHSS (in vitro translated alanine-scan variant)", "note": "[SPAM W13A variant]", "binding result": "no binding"}, {"binder": "[Met(35S)]PIFLDAILNKFWILHYAGSGSSGHHHHHHSS (in vitro translated alanine-scan variant)", "note": "[SPAM H7A variant]", "binding result": "no binding"}, {"binder": "M(35S)PIFLDHILNAFWILHYAGSGSSGHHHHHHSS (in vitro translated alanine-scan variant)", "note": "[SPAM K11A variant]", "binding result": "no binding"}, {"binder": "M(35S)AIFLDHILNKFWILHYAGSGSSGHHHHHHSS (in vitro translated alanine-scan variant)", "note": "[SPAM P2A variant]", "binding result": "binds"}]}, {"biological_target": "T2, hPD-L2* (recombinant glycosylated human PD-L2 ectodomain, L20-T220, expressed in Expi293F cells) (human, UniProt Q9BQ51 20-220, glycosylated; Avi tag biotinylated in vitro with BirA)", "T2 construct": "range 20-220", "T2 sequence": "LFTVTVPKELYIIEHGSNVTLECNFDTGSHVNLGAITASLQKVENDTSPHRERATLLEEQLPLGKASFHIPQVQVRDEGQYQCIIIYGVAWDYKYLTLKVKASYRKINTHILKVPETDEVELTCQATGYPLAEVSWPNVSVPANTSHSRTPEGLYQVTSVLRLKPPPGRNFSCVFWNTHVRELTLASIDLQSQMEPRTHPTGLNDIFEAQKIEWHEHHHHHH", "assay": "radioactive pull-down of [35S]-labeled SPAM on immobilized target, normalized to hPD-L1 [cont.) D]", "values": [{"binder": "M(35S)PIFLDHILNKFWILHYAGSGSSGHHHHHHSS (Translated in reticulocyte lysate; also called [35S]-SPAM; radiolabeled SPAM peptide)", "note": "[[35S]-labeled SPAM peptide (in vitro translated)]", "binding result": "no binding"}]}, {"biological_target": "T1, biotinylated hPD-L1 (extracellular …)", "assay": "SPR (Biacore T-100), biotinylated hPD-L1 on SA chip, mPD-1 0.15-29 uM as analyte, 25 C, one-site saturation fit", "experimental": "SPR analysis was performed on a Biacore T-100 at the USC Nanobiophysics core. […] The response values were fit to a one-site saturation binding model in GraphPad Prism to obtain an equilibrium binding constant.", "units": {"Kd": "nM"}, "values": [{"binder": "mPD-1 (extracellular domain of mouse PD-1, L15 to S157, C83S, HA tag and His tag, expressed in E. coli) (receptor, also called HA-tagged mPD-1; murine variant of PD-1) MALEVPNGPWRSLTFYPAWLTVSEGANATFTCSLSNWSEDLMLNWNRLSPSNQTEKQAAFSNGLSQPVQDARFQIIQLPNRHDFHMNILDTRRNDSGIYLCGAISLHPKAKIEESPGAELVVTERILETSTRYPSGGYPYDVPDYALEHHHHHH", "Kd": 3200}]}, {"biological_target": "T1, biotinylated hPD-L1 (extracellular …)", "assay": "ELISA/IP: 100 nM biotinylated hPD-L1 on streptavidin magnetic beads, SPAM 0.1, 1, 10 uM; competitor 100 nM HA-tagged mPD-1 detected with anti-HA-HRP", "experimental": "For ELISA/IP assays, 20 μL of MyOne™ Streptavidin T1 magnetic beads Dynabeads™ (Thermo Fisher Scientific) were loaded with 100 nM biotinylated hPD-L1 in assay buffer (20 mM HEPES-KOH pH 7.5, 150 mM NaCl, 0.2% (v/v) Tween-20, 1 mg/mL BSA and 50 μg/mL tRNA) at 4° C. […] The samples were then washed and incubated with a 1:5,000 dilution of HRP conjugated anti-HA antibody (Pierce HA Antibody, Rockford. Ill., USA) for 1 h at 4° C. The beads were washed again and developed with TMB Substrate Kit (Thermo Scientific) for 30 minutes and the reactions stopped by adding 100 μL of […] sulfuric acid.", "units": {"IC50": "nM"}, "values": [{"binder": "MPIFLDHILNKFWILHYASG[Pra]-NH2", "note": "[SPAM peptide (synthetic, MPIFLDHILNKFWILHYASG-Pra)]", "IC50": "~1100"}]}, {"biological_target": "T3, mPD-L1 expressed on CHO cells (CHO-mPD-L1) (mouse, UniProt Q9EP73 19-290)", "T3 construct": "whole, on cells; The construct in the CHO cells is not described", "T3 sequence (Q9EP73 19-290)": "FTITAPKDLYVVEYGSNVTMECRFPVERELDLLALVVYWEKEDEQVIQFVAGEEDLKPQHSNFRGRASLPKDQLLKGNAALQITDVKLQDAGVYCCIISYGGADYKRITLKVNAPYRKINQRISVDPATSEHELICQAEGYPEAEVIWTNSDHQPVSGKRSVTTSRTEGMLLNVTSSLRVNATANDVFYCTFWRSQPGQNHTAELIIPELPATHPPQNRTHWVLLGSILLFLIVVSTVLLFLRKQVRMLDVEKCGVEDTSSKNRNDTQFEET", "assay": "flow cytometry competition on CHO-mPD-L1 cells: pre-incubation with the peptide, then Fluorescein-16373; % of median fluorescence intensity [cont.) D]", "description": "Bars represent means±SD, n=3. One-way ANOVA with Dunnett's multiple comparison's test p value <0.05 (*), <0.01 (**), <0.001 (***).\nCells were then washed three times with cold serum free DMEM. Cells were subsequently processed by flow cytometry with a BD FACSCalibur system using the FL1 channel. FlowJo v10.1 was used to gate to the major population and median FL1 fluorescence reported.", "values": [{"binder": "MPIFLDHILNKFWILHYASG[Pra]-NH2", "note": "[SPAM peptide (synthetic, MPIFLDHILNKFWILHYASG-Pra)]", "binding result": "no binding (tested: 10 µM)"}]}]}
